Test results taken from article PMC5025653.

Target: C-terminal region of IbOr (IbOr-C), recombinant (sweetpotato (Ipomoea batatas))
Test: native gel or EMSA; 10% native PAGE gel, silver-stained; recombinant IbOr and truncated fragments

C-terminal region of IbOr (IbOr-C), recombinant (domain or fragment)
stoichiometry N: 3
